Assay results published in patent publication EP1506972A1 (Genentech Inc., dated 2005).

Assays:
Test in all cases: competitive phage ELISA, soluble IGFBP-1 vs coated IGFBP-1
[1] = biological target: T1, IGF-I G7A (G1S-A70V background) displayed on phage (human; bacteriophage M13)
T1 construct: not shown: M13 gene III fragment (residues 249-406, display carrier) and the IGF-g3 junction
T1 chain: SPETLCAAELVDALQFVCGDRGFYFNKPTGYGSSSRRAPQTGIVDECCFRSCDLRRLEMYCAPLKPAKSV

[2] = biological target: T2, IGF-I E9A (G1S-A70V background) displayed on phage (human; bacteriophage M13)
T2 construct: not shown: M13 gene III fragment (residues 249-406, display carrier) and the IGF-g3 junction
T2 chain: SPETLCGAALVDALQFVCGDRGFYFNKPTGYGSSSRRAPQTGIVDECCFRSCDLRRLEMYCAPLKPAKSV

[3] = biological target: T3, IGF-I L14A (G1S-A70V background) displayed on phage (human; bacteriophage M13)
T3 construct: not shown: M13 gene III fragment (residues 249-406, display carrier) and the IGF-g3 junction
T3 chain: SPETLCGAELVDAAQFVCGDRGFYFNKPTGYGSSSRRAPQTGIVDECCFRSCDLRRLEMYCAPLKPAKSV

[4] = biological target: T4, IGF-I Q15A (G1S-A70V background) displayed on phage (human; bacteriophage M13)
T4 construct: not shown: M13 gene III fragment (residues 249-406, display carrier) and the IGF-g3 junction
T4 chain: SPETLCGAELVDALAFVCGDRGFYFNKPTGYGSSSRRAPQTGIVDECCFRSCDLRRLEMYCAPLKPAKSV

[5] = biological target: T5, IGF-I V17A (G1S-A70V background) displayed on phage (human; bacteriophage M13)
T5 construct: not shown: M13 gene III fragment (residues 249-406, display carrier) and the IGF-g3 junction
T5 chain: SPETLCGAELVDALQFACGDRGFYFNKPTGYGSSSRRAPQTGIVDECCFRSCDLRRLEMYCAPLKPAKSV

[6] = biological target: T6, IGF-I T29A (G1S-A70V background) displayed on phage (human; bacteriophage M13)
T6 construct: not shown: Display carrier: M13 gene III protein fragment (residues 249-406) and the junction to it
T6 chain: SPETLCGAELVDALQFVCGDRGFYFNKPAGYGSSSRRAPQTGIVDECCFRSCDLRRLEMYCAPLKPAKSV

[7] = biological target: T7, IGF-I Y31A (G1S-A70V background) displayed on phage (human; bacteriophage M13)
T7 construct: not shown: Display carrier: M13 gene III protein fragment (residues 249-406) and the junction to it
T7 chain: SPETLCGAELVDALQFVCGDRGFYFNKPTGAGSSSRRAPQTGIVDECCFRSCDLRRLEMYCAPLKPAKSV

[8] = biological target: T8, IGF-I G32A (G1S-A70V background) displayed on phage (human; bacteriophage M13)
T8 construct: not shown: Display carrier: M13 gene III protein fragment (residues 249-406) and the junction to it
T8 chain: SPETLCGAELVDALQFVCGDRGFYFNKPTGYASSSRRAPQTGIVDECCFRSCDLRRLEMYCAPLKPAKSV

[9] = biological target: T9, wild-type IGF-I displayed on phage (double mutation restoring wild type) (human; bacteriophage M13, UniProt P69168 267-424)
T9 construct: range 249-406; also called IGF-I WT; WT

[10] = biological target: T10, IGF-I D45A (G1S-A70V background) displayed on phage (human; bacteriophage M13)
T10 construct: not shown: Display carrier: M13 gene III protein fragment (residues 249-406) and the junction to it
T10 chain: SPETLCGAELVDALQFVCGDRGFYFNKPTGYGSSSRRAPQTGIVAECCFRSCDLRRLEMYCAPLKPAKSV

[11] = biological target: T11, IGF-I S51A (G1S-A70V background) displayed on phage (human; bacteriophage M13)
T11 construct: not shown: Display carrier: M13 gene III protein fragment (residues 249-406) and the junction to it
T11 chain: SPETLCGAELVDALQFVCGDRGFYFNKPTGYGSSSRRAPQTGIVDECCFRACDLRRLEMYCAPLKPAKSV

[12] = biological target: T12, IGF-I R55A (G1S-A70V background) displayed on phage (human; bacteriophage M13)
T12 construct: not shown: Display carrier: M13 gene III protein fragment (residues 249-406) and the junction to it
T12 chain: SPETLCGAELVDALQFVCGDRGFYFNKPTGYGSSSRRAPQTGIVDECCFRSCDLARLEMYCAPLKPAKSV

[13] = biological target: T13, IGF-I R56A (G1S-A70V background) displayed on phage (human; bacteriophage M13)
T13 construct: not shown: M13 gene III fragment (residues 249-406), the display partner, and its junction to IGF-I
T13 chain: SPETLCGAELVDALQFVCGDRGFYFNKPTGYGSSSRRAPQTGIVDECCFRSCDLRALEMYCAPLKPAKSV

[14] = biological target: T14, IGF-I E58A (G1S-A70V background) displayed on phage (human; bacteriophage M13)
T14 construct: not shown: M13 gene III fragment (residues 249-406), the display partner, and its junction to IGF-I
T14 chain: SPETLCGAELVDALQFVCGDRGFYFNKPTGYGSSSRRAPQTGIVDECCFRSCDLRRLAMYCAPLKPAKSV

[15] = biological target: T15, IGF-I Y60A (G1S-A70V background) displayed on phage (human; bacteriophage M13)
T15 construct: not shown: M13 gene III fragment (residues 249-406), the display partner, and its junction to IGF-I
T15 chain: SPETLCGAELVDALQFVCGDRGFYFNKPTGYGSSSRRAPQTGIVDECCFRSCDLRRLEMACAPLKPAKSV

[16] = biological target: T16, IGF-I K68A (G1S-A70V background) displayed on phage (human; bacteriophage M13)
T16 construct: not shown: Display carrier: M13 gene III protein fragment (residues 249-406) and its junction to Val70

[17] = biological target: T17, IGF-I L5A (G1S-A70V background) displayed on phage (human; bacteriophage M13)
T17 construct: not shown: The display carrier: M13 gene III protein fragment (residues 249-406) and the junction to it
T17 chain: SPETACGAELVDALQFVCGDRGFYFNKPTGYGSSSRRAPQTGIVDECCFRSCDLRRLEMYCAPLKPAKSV

B1: human IGFBP-1 (other, UniProt P08833 26-259, looked up)
chain: APWQCAPCSAEKLALCPPVSASCSEVTRSAGCGCCPMCALPLGAACGVATARCARGLSCRALPGEQQPLHALTRGQGACVQESDASAPHAAEAGSPESPESTEITEEELLDNFHLMAPSEEDHSILWDAISTYDGSKALHVTNIKKWKEPCRIELYRVVESLAKAQETSGEEISKFYLPNCNKNGFYHSRQCETSMDGEAGLCWCVYPWNGKRIPGSPEIRGDPNCQIYFNVQN
notes: Secreted recombinant protein
relative IC50 (IC50mut/IC50 G1S-A70V) [1]: > 100 fold | relative IC50 (IC50mut/IC50 G1S-A70V) [2]: 1 fold | relative IC50 (IC50mut/IC50 G1S-A70V) [3]: 4.5 fold | relative IC50 (IC50mut/IC50 G1S-A70V) [4]: 1.7 fold | relative IC50 (IC50mut/IC50 G1S-A70V) [5]: 5.2 fold | relative IC50 (IC50mut/IC50 G1S-A70V) [6]: 0.9 fold | relative IC50 (IC50mut/IC50 G1S-A70V) [7]: 0.8 fold | relative IC50 (IC50mut/IC50 G1S-A70V) [8]: 1.3 fold | relative IC50 (IC50mut/IC50 G1S-A70V) [9]: 1 fold | relative IC50 (IC50mut/IC50 G1S-A70V) [10]: 0.6 fold | relative IC50 (IC50mut/IC50 G1S-A70V) [11]: 1.6 fold | relative IC50 (IC50mut/IC50 G1S-A70V) [12]: 1.1 fold | relative IC50 (IC50mut/IC50 G1S-A70V) [13]: 1.6 fold | relative IC50 (IC50mut/IC50 G1S-A70V) [14]: 1.5 fold | relative IC50 (IC50mut/IC50 G1S-A70V) [15]: 0.8 fold | relative IC50 (IC50mut/IC50 G1S-A70V) [16]: 1.3 fold | relative IC50 (IC50mut/IC50 G1S-A70V) [17]: 6.7 fold
